Test results published in the supplement of paper PMC6757056.
± gives the standard deviation of the averaged measurements.

B1: library; a variant is named by its letters at N, in order (parent)
chain: GCUGUCACCGGUGCUUGGUACGUUAUAUUCAGCCGGUCUGAUGAGUCUNNNNNNAGACGAAACAGC

Columns and labels:
(6R,S)-folinic acid [1] = variants of: B1; test: normalized RNA/DNA level without ligand (relative to sTRSVctl = 100) (log10 (% of sTRSVctl)); HEK293T overexpressing SLC46A1; higher = less ribozyme self-cleavage, higher mRNA level; conditions: without (6R,S)-folinic acid; ligand present: no
Procedure, shortened: (§1)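 For each 6-well well, 4 µg of library plasmid encoding mCherry-linked ribozyme switches, or eGFP-linked ones in some ligand experiments, was transfected into HEK293T. Any ligand was added 1 h before transfection, and RNA was extracted with EDTA 72 h after it, then reverse-transcribed, amplified, barcoded and sequenced. RNA level was obtained by dividing RNA reads by DNA reads, normalizing to a spiked-in non-cleaving sequence or to the top sequences, then scaling and log-transforming. The top set was 25 sequences, scaling was ×100 with log10, and ≥100 DNA reads were required.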

(6R,S)-folinic acid [2] = variants of: B1; test: normalized RNA/DNA level with ligand (relative to sTRSVctl = 100) (log10 (% of sTRSVctl)); HEK293T overexpressing SLC46A1; ligand concentration (+) RNA-Seq: 6 mM; higher = less ribozyme self-cleavage, higher mRNA level; conditions: with (6R,S)-folinic acid; ligand present: yes
Procedure, shortened: as §1

Variant	normalized RNA/DNA level without ligand (log10) ((6R,S)-folinic acid [1])	normalized RNA/DNA level with ligand (log10) ((6R,S)-folinic acid [2])
GCUGUCACCGGUGCUUGGUACGUUAUAUUCAGCCGGUCUGAUGAGUCUCUCAUUAGACGAAACAGC [CUCAUU]	2.08 ± 0.03	2.05 ± 0.026
GCUGUCACCGGUGCUUGGUACGUUAUAUUCAGCCGGUCUGAUGAGUCUCUCAUAAGACGAAACAGC [CUCAUA]	1.99 ± 0.021	1.96 ± 0.055
GCUGUCACCGGUGCUUGGUACGUUAUAUUCAGCCGGUCUGAUGAGUCUCUCAUGAGACGAAACAGC [CUCAUG]	2.003 ± 0.019	1.98 ± 0.023
GCUGUCACCGGUGCUUGGUACGUUAUAUUCAGCCGGUCUGAUGAGUCUUUCCACAGACGAAACAGC [UUCCAC]	2.01 ± 0.016	1.99 ± 0.033
GCUGUCACCGGUGCUUGGUACGUUAUAUUCAGCCGGUCUGAUGAGUCUUUCCAUAGACGAAACAGC [UUCCAU]	1.99 ± 0.023	1.99 ± 0.049
GCUGUCACCGGUGCUUGGUACGUUAUAUUCAGCCGGUCUGAUGAGUCUUUCCAGAGACGAAACAGC [UUCCAG]	1.91 ± 0.021	1.99 ± 0.034
GCUGUCACCGGUGCUUGGUACGUUAUAUUCAGCCGGUCUGAUGAGUCUGUCAUUAGACGAAACAGC [GUCAUU]	2.068 ± 0.0023	2.007 ± 0.0048
GCUGUCACCGGUGCUUGGUACGUUAUAUUCAGCCGGUCUGAUGAGUCUGUCAUAAGACGAAACAGC [GUCAUA]	1.994 ± 0.0035	1.99 ± 0.055
GCUGUCACCGGUGCUUGGUACGUUAUAUUCAGCCGGUCUGAUGAGUCUGUCAUCAGACGAAACAGC [GUCAUC]	2.0573 ± 0.0006	2.01 ± 0.0035
GCUGUCACCGGUGCUUGGUACGUUAUAUUCAGCCGGUCUGAUGAGUCUAUCCCGAGACGAAACAGC [AUCCCG]	2.01 ± 0.0024	2.01 ± 0.029
GCUGUCACCGGUGCUUGGUACGUUAUAUUCAGCCGGUCUGAUGAGUCUAUCCCUAGACGAAACAGC [AUCCCU]	2.039 ± 0.0098	2.027 ± 0.012
GCUGUCACCGGUGCUUGGUACGUUAUAUUCAGCCGGUCUGAUGAGUCUAUCCCCAGACGAAACAGC [AUCCCC]	2.047 ± 0.013	2.01 ± 0.05
GCUGUCACCGGUGCUUGGUACGUUAUAUUCAGCCGGUCUGAUGAGUCUAUCCCAAGACGAAACAGC [AUCCCA]	2.022 ± 0.0087	2.03 ± 0.036
GCUGUCACCGGUGCUUGGUACGUUAUAUUCAGCCGGUCUGAUGAGUCUUUCCCGAGACGAAACAGC [UUCCCG]	1.972 ± 0.0089	2 ± 0.038
GCUGUCACCGGUGCUUGGUACGUUAUAUUCAGCCGGUCUGAUGAGUCUUUCCCUAGACGAAACAGC [UUCCCU]	2.058 ± 0.011	2.06 ± 0.048
GCUGUCACCGGUGCUUGGUACGUUAUAUUCAGCCGGUCUGAUGAGUCUUUCCCAAGACGAAACAGC [UUCCCA]	2.034 ± 0.0022	2.03 ± 0.04
GCUGUCACCGGUGCUUGGUACGUUAUAUUCAGCCGGUCUGAUGAGUCUUUCCCCAGACGAAACAGC [UUCCCC]	2.058 ± 0.019	1.99 ± 0.022
GCUGUCACCGGUGCUUGGUACGUUAUAUUCAGCCGGUCUGAUGAGUCUAUCCAGAGACGAAACAGC [AUCCAG]	1.981 ± 0.0027	2 ± 0.031
GCUGUCACCGGUGCUUGGUACGUUAUAUUCAGCCGGUCUGAUGAGUCUAUCCAAAGACGAAACAGC [AUCCAA]	1.958 ± 0.0049	1.98 ± 0.02
GCUGUCACCGGUGCUUGGUACGUUAUAUUCAGCCGGUCUGAUGAGUCUAUCCACAGACGAAACAGC [AUCCAC]	2.037 ± 0.013	2.02 ± 0.037
GCUGUCACCGGUGCUUGGUACGUUAUAUUCAGCCGGUCUGAUGAGUCUAUCCAUAGACGAAACAGC [AUCCAU]	1.991 ± 0.0092	2.01 ± 0.042

Variant	normalized RNA/DNA level without ligand (log10) ((6R,S)-folinic acid [1])	normalized RNA/DNA level with ligand (log10) ((6R,S)-folinic acid [2])
GCUGUCACCGGUGCUUGGUACGUUAUAUUCAGCCGGUCUGAUGAGUCUCUCCCGAGACGAAACAGC [CUCCCG]	2.067 ± 0.0068	2.0818 ± 0.00082
GCUGUCACCGGUGCUUGGUACGUUAUAUUCAGCCGGUCUGAUGAGUCUCUCCCCAGACGAAACAGC [CUCCCC]	2.02 ± 0.033	2 ± 0.058
GCUGUCACCGGUGCUUGGUACGUUAUAUUCAGCCGGUCUGAUGAGUCUCUCCCAAGACGAAACAGC [CUCCCA]	2.064 ± 0.0049	2.01 ± 0.061
GCUGUCACCGGUGCUUGGUACGUUAUAUUCAGCCGGUCUGAUGAGUCUCUCCCUAGACGAAACAGC [CUCCCU]	2.04 ± 0.044	2.05 ± 0.062
GCUGUCACCGGUGCUUGGUACGUUAUAUUCAGCCGGUCUGAUGAGUCUUUCAUAAGACGAAACAGC [UUCAUA]	1.993 ± 0.0029	1.994 ± 0.002
GCUGUCACCGGUGCUUGGUACGUUAUAUUCAGCCGGUCUGAUGAGUCUUUCAUUAGACGAAACAGC [UUCAUU]	2.025 ± 0.0078	2.01 ± 0.053
GCUGUCACCGGUGCUUGGUACGUUAUAUUCAGCCGGUCUGAUGAGUCUUUCAUCAGACGAAACAGC [UUCAUC]	2.01 ± 0.036	1.93 ± 0.043
GCUGUCACCGGUGCUUGGUACGUUAUAUUCAGCCGGUCUGAUGAGUCUAUCAUGAGACGAAACAGC [AUCAUG]	1.989 ± 0.009	2.005 ± 0.019
GCUGUCACCGGUGCUUGGUACGUUAUAUUCAGCCGGUCUGAUGAGUCUAUCAUUAGACGAAACAGC [AUCAUU]	2.05 ± 0.024	2.03 ± 0.023
GCUGUCACCGGUGCUUGGUACGUUAUAUUCAGCCGGUCUGAUGAGUCUAUCAUCAGACGAAACAGC [AUCAUC]	2.01 ± 0.022	1.98 ± 0.031
GCUGUCACCGGUGCUUGGUACGUUAUAUUCAGCCGGUCUGAUGAGUCUGUCCCUAGACGAAACAGC [GUCCCU]	2.05 ± 0.021	2.03 ± 0.03
GCUGUCACCGGUGCUUGGUACGUUAUAUUCAGCCGGUCUGAUGAGUCUGUCCCGAGACGAAACAGC [GUCCCG]	2.004 ± 0.019	1.98 ± 0.024
GCUGUCACCGGUGCUUGGUACGUUAUAUUCAGCCGGUCUGAUGAGUCUGUCCCAAGACGAAACAGC [GUCCCA]	2.039 ± 0.0032	2.016 ± 0.0029
GCUGUCACCGGUGCUUGGUACGUUAUAUUCAGCCGGUCUGAUGAGUCUGUCCACAGACGAAACAGC [GUCCAC]	2.006 ± 0.011	2.011 ± 0.017
GCUGUCACCGGUGCUUGGUACGUUAUAUUCAGCCGGUCUGAUGAGUCUGUCCAUAGACGAAACAGC [GUCCAU]	1.9991 ± 3.5e-06	2.008 ± 0.016
GCUGUCACCGGUGCUUGGUACGUUAUAUUCAGCCGGUCUGAUGAGUCUGUCCAAAGACGAAACAGC [GUCCAA]	1.992 ± 0.011	2.01 ± 0.035
GCUGUCACCGGUGCUUGGUACGUUAUAUUCAGCCGGUCUGAUGAGUCUCUCCAUAGACGAAACAGC [CUCCAU]	2.021 ± 0.011	2.03 ± 0.0026
GCUGUCACCGGUGCUUGGUACGUUAUAUUCAGCCGGUCUGAUGAGUCUCUCCAGAGACGAAACAGC [CUCCAG]	2.033 ± 0.011	2.0495 ± 0.00031
GCUGUCACCGGUGCUUGGUACGUUAUAUUCAGCCGGUCUGAUGAGUCUCUCCACAGACGAAACAGC [CUCCAC]	2.0214 ± 0.0016	2.01 ± 0.046
GCUGUCACCGGUGCUUGGUACGUUAUAUUCAGCCGGUCUGAUGAGUCUCUCCAAAGACGAAACAGC [CUCCAA]	2.03 ± 0.021	2.02 ± 0.025
